# Laboratory results reported in IntAct's records for PubMed 12732628.
# B1: Molybdopterin synthase sulfur carrier subunit (Homo sapiens), O96033 (parent)
# chain: MVPLCQVEVLYFAKSAEITGVRSETISVPQEIKALQLWKEIETRHPGLADVRNQIIFAVRQEYVELGDQLLVLQPGDEIAVIPPISGG
# partner: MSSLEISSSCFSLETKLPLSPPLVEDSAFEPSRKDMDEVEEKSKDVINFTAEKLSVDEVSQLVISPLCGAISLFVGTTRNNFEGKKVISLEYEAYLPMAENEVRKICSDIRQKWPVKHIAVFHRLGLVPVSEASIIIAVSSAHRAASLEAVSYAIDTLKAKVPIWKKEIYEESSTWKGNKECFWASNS
# Variants of: B1
# Settings: with moc2b_human MOCS2, O96007
row,effect of a mutation on the interaction,Variant
1,disrupting interaction,MVPLCQFEVLYFAKSAEITGVRSETISVPQEIKALQLWKEIETRHPGLADVRNQIIFAVRQEYVELGDQLLVLQPGDEIAVIPPISGG [V7F]
